Reference: the supplement of paper PMC12764529
± gives the half width of the 95% confidence interval.

Legend:
[1] = folding stability dG unfold from trypsin proteolysis; higher = more stable
Outline: (§1)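 Designed mini-proteins (under 80 residues, no cysteine) in a PA-tagged cDNA display construct were digested with trypsin and chymotrypsin. Each protease was used at 11 concentrations (threefold dilutions) plus a no-protease condition, followed by sequencing. K50 was inferred by Bayesian fitting of sequencing counts, and unfolding free energy was derived against a sequence-predicted unfolded-state K50 and a shared folded-state K50, per protease or combined. Only designs with AlphaFold2 dimer inter-PAE above 15 were kept.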

[2] = folding stability dG unfold from chymotrypsin proteolysis; higher = more stable
Outline: as §1

[3] = folding stability dG unfold (combined trypsin and chymotrypsin); higher = more stable
Outline: as §1

Sequence	folding stability dG unfold [1] [kcal/mol]	folding stability dG unfold [2] [kcal/mol]	folding stability dG unfold [3] [kcal/mol]
SAGGSALVIKKVEPNKGYLVFESKEDDKPIVRVKLETLVAALEEDRIPPALRRLLAENPDQVFNPVSAGGSA [r15_359_TrMRF]	2.22 ± 0.12	1.75 ± 0.25	1.9 ± 0.21
SAEMKIEKIEVKPLEEEPELVEITIKVKDPEKLKEALEKAGFTVEEVDEEEGKLTITMSREQLEKLLKASAG [r14_777_TrROS_Hall]	1.85 ± 0.1	1.68 ± 0.14	1.91 ± 0.31
SAGGKTVPIMFPFDSPDQIEEIIEELAKPGFDDVKPERIEPEPPPDGNYYFPVRIEVDPKNGKIEITFSAGG [r13_174_TrROS]	0.0445 ± 0.13	0.185 ± 0.19	-0.0243 ± 0.29
SAGPIIIRVKYPDGRQIDINPENPWQIQIWDPGGKKETYPFDSNEDAKDKVVDWLGEEHGWPIKDVEIVSAG [r5_119_TrROS]	0.373 ± 0.043	0.35 ± 0.059	0.403 ± 0.11
SAGMKLELLLPAEEAVRLFGPDFDARDLARALASEGYVVESVEAEPFPNPEEGGLYLRVTFDVRPPDASAGG [r19_376_TrMRF]	1.37 ± 0.018	1.4 ± 0.061	1.38 ± 0.045
SAGGSAGGSPNTVPIPIRVEWYDPKDGEPKDEHPFNINFKTEEEAEDIIDNIAPDHPGMKIEISAGGSAGGS [r12_1043_TrROS]	0.233 ± 0.096	-0.322 ± 0.11	0.0133 ± 0.14
SAGGSAGGSAGGDWKMIEFYIPIEPDEPITIEIPDGVRIQIWRVDGYYKVTIMIPLEDISAGGSAGGSAGGS [r10_355_TrROS]	2.42 ± 0.14	3.71 ± 0.083	3.17 ± 0.18
SAGGSAPPDTPLATIEFTLTPPDGSTTPTTITVPPSVVEEAAAAQKAAFEAAGWATTVTVATTTPLSAGGSA [r2_274_JUSTAS]	0.676 ± 0.015	0.246 ± 0.1	0.526 ± 0.034
SASSMSLSFSVSLETDPEKGLLSTVTTTSTVTPYPDSVVTTTTVTTTVTPVPPGPPVVSPSATPVVALSSAG [r14_435_JUSTAS]	1.47 ± 0.04	0.593 ± 0.098	1.13 ± 0.051
SAGGSAMLVVADDPEVVRELVEPLFPDGEPVLVVGATEEEAAKLVEELKKKGLPFKVVVVRRPDRPSAGGSA [r15_567_TrMRF]	0.932 ± 0.048	-0.039 ± 0.23	0.657 ± 0.14
SAGGSAGGSAGGGVKYRVLLPKDVNPEKAAELLKPYGVKVVSIEEVEEGFYLIEVEKPESAGGSAGGSAGGS [r10_591_TrMRF]	1.18 ± 0.032	1.59 ± 0.13	1.49 ± 0.13
SAGGSAGGWITPDAAKEFADKWGFDDVNVEVLDVDPNNNYVRVKVTARNPKNGNERPIGEFWFPSAGGSAGG [r6_699_TrROS]	0.585 ± 0.056	1.46 ± 0.045	1.2 ± 0.066
SAGGLEIEVFNEKGEPVEVRLRRKEDDTLELEVRFRDASGREYRARATVRVKETEIELGEVDEWEELESAGG [r13_451_TrMRF]	2.19 ± 0.09	1.84 ± 0.082	2.21 ± 0.26
SAGGSAMLVKVTITLKKGGKEYTLEQFVEVNPPDLKIEIPPEIKEKGWEIVDIEVEEITPEEAERKSAGGSA [r15_853_JUSTAS]	1.24 ± 0.091	3.19 ± 0.039	2.8 ± 0.28
SAGGSAGGSAGGKKIKIKINSPGNAEEVKKLLEPFGLEVDSIKENKNNPNLIIVEVNVESAGGSAGGSAGGS [r10_104_TrMRF]	-0.276 ± 0.11	0.563 ± 0.031	0.242 ± 0.11
SMPGVRVRLYTVRVKTPEGGELTAPIAVPAELFTEEEIRELVREAFPDAEDVEIEPAVLELPPAPGLLTASA [r9_841_TrMRF]	1.39 ± 0.034	1.31 ± 0.1	1.43 ± 0.079
SHTTTEPATGVTVEVVPSPDGTHVVTVKKPGGEVVKTVTVPSGPRPPGSTTPLTVALTDLPPDVETSVDLSS [r1_263_JUSTAS]	0.416 ± 0.067	0.141 ± 0.077	0.232 ± 0.2

Sequence	folding stability dG unfold [1] [kcal/mol]	folding stability dG unfold [2] [kcal/mol]	folding stability dG unfold [3] [kcal/mol]
SAGMEKKTLTVTHPDGSEATVEVYKNPETGKYVTLVHYPETGKYEVFDDNGNLIATFGNGSAADAFKAISAG [r5_757_TrMRF]	0.375 ± 0.054	1.8 ± 0.1	1.44 ± 0.13
SAGGTTTTLTFETEEEAREFAEELREKHPDVVLEVEIRRETRTVTVPGVGEVREVDRVVVTVTLTPASAGGS [r16_828_JUSTAS]	2.03 ± 0.054	3.27 ± 0.064	2.89 ± 0.07
SAGGSAGGSAGMTKTITVGDKKVNVTITPLPTPTTKVTITFPDGSTKTVTLPAGTPITLGSAGGSAGGSAGG [r11_525_JUSTAS]	0.566 ± 0.045	0.176 ± 0.064	0.326 ± 0.054
SAGGSAGGSAGMITIYAPPSVPVEEVREEVKEKIKKENPNDPKEVKGVEVDPNGSLEELESAGGSAGGSAGG [r17_43_JUSTAS]	-0.286 ± 0.12	-0.655 ± 0.31	–
KTYTIDEIAEKLGMSKEELKNMSAEEIKEALKKLLPPEEIEKVEISYNEKDKKVTITVTLKNGEKVEITIDS [r1_340_TrROS_Hall]	4.04 ± 0.71	5.06 ± 0.23	–
SAGGKPKKKPPPVIEIVDIRVEYDPETKEVRITVKIRLPNGETLTLTITVPPGTTLEELLEKLKELLSSAGG [r13_578_TrROS_Hall]	4.11 ± 0.61	2.71 ± 0.11	–
SAGGSAGGDPNKPPPPKQIEIPIPPDNITDVEPNPDGFYFMEFNLPDGDSITIIVYPDGNIHIMSAGGSAGG [r6_119_TrROS]	2.83 ± 0.28	4.25 ± 0.34	–
SAGGDVGLEEKAREIAEELREEISKKLGVNVKVTEVKVEYDPKTGKYTVTVTITLPGGETITITVPESAGGS [r8_372_JUSTAS]	3.85 ± 0.32	4.36 ± 0.54	–
SAGGSAGGSAGGKKKLKIKIEIKIEEKIKKTPNGKLEKEKKIEITKIIEIEPDSPLLKKLSAGGSAGGSAGG [r7_889_TrROS_Hall]	2.17 ± 0.14	0.948 ± 0.29	–
SAGGSAGGSAGGNEDDNVPIGEKTVVKKVPPSSPVTITETIYRRPSTGTTSTTEKVIIESAGGSAGGSAGGS [r10_6_JUSTAS]	-1.12 ± 0.42	–	< -1
SAGGSAGGSAGMPPNTVVLRESLEPGRVVLTLAVVTPGSVASVEVTEEFPVVPGTGVVVGSAGGSAGGSAGG [r11_66_JUSTAS]	0.706 ± 0.038	–	0.139 ± 0.13
SAGGMTKPTSSPSPLDPSTPPEEWIAAIEKELPPDWRIVEPRPRPGPRLVTVLAEDPNSGKRVILRASAGGS [r16_250_JUSTAS]	-0.989 ± 0.55	–	< -1
SAGGSAGGSAGGKNMQEVPFPIEIKDPKNGKKIKIPVEVRRNPDDGKYQITPEALEELIKSAGGSAGGSAGG [r7_557_TrROS]	-0.809 ± 0.31	–	< -1
SAGGSAGGSAPIVRLEFGPVIPLPDMSPDELKEKTAELVPEEYREKIKIVSVLDPDNPKEISAGGSAGGSAG [r3_340_TrMRF]	-0.269 ± 0.12	–	< -1
SPIILPGASTVTINATVTVEPRDPATGTVLSSRDLPVPVTVTTNADGTVTITVDVPADVPADAAVTVDLTSA [r9_90_JUSTAS]	0.239 ± 0.018	–	-0.338 ± 0.1
SAGGSAGGSALSPDDVEPIDEEPFHNPGGNPMNIGIWKNPDDGKPFIRNPGNGNPFPADDLSAGGSAGGSAG [r3_181_TrROS]	-0.498 ± 0.12	–	< -1
